Laboratory results taken from US20220056119A1 (Regeneron, published 2022).
Substitutions are numbered along the chain they refer to.

Legend:
Activin A [1] = biological target: T1, Activin A (human, UniProt P08476 311-426); test: cell-based or functional assay
T1 sequence: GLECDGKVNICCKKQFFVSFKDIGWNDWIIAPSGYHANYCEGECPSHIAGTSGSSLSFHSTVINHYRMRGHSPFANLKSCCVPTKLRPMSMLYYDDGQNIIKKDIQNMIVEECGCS

Activin AC = biological target: T2, Activin AC (human, UniProt P55103 237-352); test: cell-based or functional assay
T2 sequence 1: T1 sequence
T2 sequence 2: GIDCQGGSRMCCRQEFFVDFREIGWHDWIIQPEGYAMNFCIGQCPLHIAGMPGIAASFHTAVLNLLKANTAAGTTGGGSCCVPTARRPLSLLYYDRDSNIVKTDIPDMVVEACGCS

Activin AB = biological target: T3, Activin AB (human, UniProt P08476 311-426; P09529 293-407); test: cell-based or functional assay
T3 chain 1: T1 sequence
T3 chain 2: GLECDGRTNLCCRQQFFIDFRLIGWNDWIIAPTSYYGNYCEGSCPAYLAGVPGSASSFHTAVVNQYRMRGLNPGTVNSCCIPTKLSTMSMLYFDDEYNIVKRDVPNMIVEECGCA

Activin A [2] = biological target: T1, Activin A; test: SPR, 5 nM Activin A + 30 nM binder over hActRIIA-hFc surface
Experimental: (§1) The binding signal (RU) was measured at 150 seconds after the start of the injection, and this signal was subtracted by the measured RU value for a negative control reference surface to determine the specific binding signal.

Activin A [3] = biological target: T1, Activin A; test: SPR, 5 nM Activin A + 3.75 nM binder over Follistatin-288 surface
Experimental: as §1

Activin A [4] = biological target: T1, Activin A; test: SPR, 5 nM Activin A + 3.75 nM binder over hActRIIA-hFc surface
Experimental: as §1

Activin A [5] = biological target: T1, Activin A; test: SPR, 5 nM Activin A + 0.00 nM binder (no inhibitor) over hActRIIA-hFc surface
Experimental: as §1

Activin A [6] = biological target: T1, Activin A; test: SPR, 5 nM Activin A + 15 nM binder over hActRIIA-hFc surface
Experimental: as §1

Activin A [7] = biological target: T1, Activin A; test: SPR, 5 nM Activin A + 60 nM binder over Follistatin-288 surface
Experimental: as §1

Activin A [8] = biological target: T1, Activin A; test: SPR, 5 nM Activin A + 1.88 nM binder over Follistatin-288 surface
Experimental: as §1

Activin A [9] = biological target: T1, Activin A; test: SPR, 5 nM Activin A + 0 nM binder (no inhibitor) over Follistatin-288 surface
Experimental: as §1

Activin A [10] = biological target: T1, Activin A; test: SPR, 5 nM Activin A + 60 nM binder over hActRIIA-hFc surface
Experimental: as §1

Activin A [11] = biological target: T1, Activin A; test: SPR, 5 nM Activin A + 15 nM binder over Follistatin-288 surface
Experimental: as §1

Activin A [12] = biological target: T1, Activin A; test: SPR, 5 nM Activin A + 7.5 nM binder over Follistatin-288 surface
Experimental: as §1

Activin A [13] = biological target: T1, Activin A; test: SPR, 5 nM Activin A + 1.88 nM binder over hActRIIA-hFc surface
Experimental: as §1

Activin A [14] = biological target: T1, Activin A; test: SPR, 5 nM Activin A + 30 nM binder over Follistatin-288 surface
Experimental: as §1

Activin A [15] = biological target: T1, Activin A; test: SPR, 5 nM Activin A + 0.94 nM binder over Follistatin-288 surface
Experimental: as §1

Activin A [16] = biological target: T1, Activin A; test: SPR, 5 nM Activin A + 0.94 nM binder over hActRIIA-hFc surface
Experimental: as §1

Activin A [17] = biological target: T1, Activin A; test: SPR, 5 nM Activin A + 7.50 nM binder over hActRIIA-hFc surface
Experimental: as §1

B1: H4H10468P2 (antibody, human IgG4, V domains shown)
VH: QVQLQESGPGLVKPSETLSLTCTVSGGSFSSHFWSWIRQPPGKGLEWIGYIYYSGGTHYNPSLESRVTISVDTSKNQFSLKLNSVTAADTAVYYCARARSGITFGGLIVPGSFDIWGQGTMVTVSS
VL: not shown
IC50, inhibition of 100 pM Activin A in A204/CAGAx12-Luc luciferase bioassay (Activin A [1]): 3.9e-11 M
IC50, inhibition of 4 nM Activin AC in A204/CAGAx12-Luc luciferase bioassay (Activin AC): 3.4 nM
IC50, inhibition of 30 pM Activin AB in A204/CAGAx12-Luc luciferase bioassay (Activin AB): 2.3e-09 M

B2: H4H10442P2 (antibody, human IgG4, V domains shown)
VH: B1 VH with L20I, S35T, I51L, Y52H, H58S, E64K, T68I
VL: not shown
% bound RU w/ no inhibitor (Activin A [2]): 117%
% bound RU w/ no inhibitor (Activin A [3]): 6%
% bound RU w/ no inhibitor (Activin A [4]): 95%
% bound RU w/ no inhibitor (Activin A [5]): 100%
% bound RU w/ no inhibitor (Activin A [6]): 113%
IC50, inhibition of 100 pM Activin A in A204/CAGAx12-Luc luciferase bioassay (Activin A [1]): 5.6e-11 M
IC50, inhibition of 4 nM Activin AC in A204/CAGAx12-Luc luciferase bioassay (Activin AC): 6.5 nM
IC50, inhibition of 30 pM Activin AB in A204/CAGAx12-Luc luciferase bioassay (Activin AB): 2.2e-09 M
% bound RU w/ no inhibitor (Activin A [7]): 3%
% bound RU w/ no inhibitor (Activin A [8]): 46%
% bound RU w/ no inhibitor (Activin A [9]): 100%
% bound RU w/ no inhibitor (Activin A [10]): 118%
% bound RU w/ no inhibitor (Activin A [11]): 3%
% bound RU w/ no inhibitor (Activin A [12]): 3%
% bound RU w/ no inhibitor (Activin A [13]): 114%
% bound RU w/ no inhibitor (Activin A [14]): 3%
% bound RU w/ no inhibitor (Activin A [15]): 73%
% bound RU w/ no inhibitor (Activin A [16]): 114%
% bound RU w/ no inhibitor (Activin A [17]): 105%

B3: H4H10445P2 (antibody, human IgG4, V domains shown)
VH: QVQLQESGPGLVKPSETLSLICSVSGGSFSSHFWSWIRQPPGKGLEWIGYVLYSGGTNYNPSLKSRVTISVDTSKNQFFLKLSSVTAADTADYYCARAISGITFGGIIVPGSFDIWGQGTMVTVSS
VL: not shown
IC50, inhibition of 100 pM Activin A in A204/CAGAx12-Luc luciferase bioassay (Activin A [1]): 5.3e-11 M

B4: H4H10447P2 (antibody, human IgG4, V domains shown)
VH: B3 VH with I21T, V51I, L52H, F79S, S83T, I107M, I115V, Q118E
VL: not shown
IC50, inhibition of 100 pM Activin A in A204/CAGAx12-Luc luciferase bioassay (Activin A [1]): 7.8e-11 M

B5: H4H10448P2 (antibody, human IgG4, V domains shown)
VH: B1 VH with S28T, Y52F, S54T, H58N, Y59H, E64K, V71I, N83T, L107V
VL: not shown
IC50, inhibition of 100 pM Activin A in A204/CAGAx12-Luc luciferase bioassay (Activin A [1]): 4.6e-11 M

B6: H4H10452P2 (antibody, human IgG4, V domains shown)
VH: QVQLQESGPGLVKPSETLSLTCTVSGGSFSSHFWNWIRQSPGRGLEWIGYIYYSGGTNYNPSFKSRVTMSVDTSKNQFSLKLSSVTAADTAVFYCARARSGITFGGVLVPGSFDIWGQGTMVTVSS
VL: not shown
IC50, inhibition of 100 pM Activin A in A204/CAGAx12-Luc luciferase bioassay (Activin A [1]): 5.8e-11 M

B7: H2aM10965N (antibody, mouse IgG2a, V domains shown)
VH: RVQLVQSGSEVKKPGASVKVSCRASGYIFTSYDINWVRQATGQGLEWMGWMNPNNGNTAYTQKFQGRVTMTRNTSISTAYMELSSLRSEDTAVYYCARKGLLWFGKLLGYGMDVWGQGTTVTVSS
VL: not shown
IC50, inhibition of 100 pM Activin A in A204/CAGAx12-Luc luciferase bioassay (Activin A [1]): 3.5e-09 M
